Test results published in the Human Domainome abundance scans (Beltran et al. 2025).
± gives the uncertainty stated by the source.

B1: Triacylglycerol hydrolase DDHD2, residues 389 to 447; numbered along this chain, O94830 (parent)
chain: TLEEDLKKLQLSEFFDIFEKEKVDKEALALCTDRDLQEIGIPLGPRKKILNYFSTRKNS
B2: Probable E3 ubiquitin-protein ligase MID2, residues 191 to 235; numbered along this chain, Q9UJV3 (parent)
chain: RGITCLDHENEKVNMYCVSDDQLICALCKLVGRHRDHQVASLNDR

Variants of: B1
Assay: abundance fitness (aPCA) (normalised: wild type 0, dead -1); higher = more abundant; growth selection in yeast, the domain comes from the species named
Details: Homo sapiens

Row | Variant | abundance fitness
1 | R56L | -0.086 ± 0.065
2 | R56M | 0.095 ± 0.092
3 | R56N | -0.236 ± 0.15
4 | R56P | 0.084 ± 0.093
5 | R56Q | 0.143 ± 0.11
6 | R56S | -0.027 ± 0.072
7 | R56T | 0.033 ± 0.081
8 | R56V | 0.035 ± 0.064
9 | R56W | -0.1 ± 0.098
10 | R56Y | 0.019 ± 0.11
11 | K57A | -0.102 ± 0.069
12 | K57C | -0.269 ± 0.093
13 | K57F | -0.224 ± 0.14
14 | K57G | -0.031 ± 0.061
15 | K57H | -0.291 ± 0.18
16 | K57I | -0.075 ± 0.14
17 | K57L | -0.219 ± 0.071
18 | K57M | 0.067 ± 0.092
19 | K57N | -0.287 ± 0.15

Row | Variant | abundance fitness
20 | K57Q | -0.076 ± 0.098
21 | K57S | -0.115 ± 0.072
22 | K57T | -0.155 ± 0.09
23 | K57V | -0.175 ± 0.072
24 | K57W | -0.525 ± 0.086
25 | K57Y | -0.244 ± 0.14
26 | N58A | -0.193 ± 0.097
27 | N58C | -0.252 ± 0.15
28 | N58E | 0.078 ± 0.088
29 | N58F | -0.422 ± 0.17
30 | N58H | -0.377 ± 0.13
31 | N58L | -0.116 ± 0.088
32 | N58M | 0.208 ± 0.12
33 | N58P | -0.199 ± 0.11
34 | N58Q | -0.236 ± 0.12
35 | N58R | -0.332 ± 0.074
36 | N58T | -0.049 ± 0.11
37 | N58V | -0.015 ± 0.078
38 | N58W | -0.373 ± 0.14

Row | Variant | abundance fitness
39 | N58Y | -0.08 ± 0.14
40 | S59A | -0.235 ± 0.1
41 | S59C | -0.058 ± 0.13
42 | S59D | 0.23 ± 0.17
43 | S59E | 0.075 ± 0.18
44 | S59F | 0.03 ± 0.12
45 | S59G | -0.151 ± 0.11
46 | S59H | -0.056 ± 0.17
47 | S59K | -0.547 ± 0.37
48 | S59L | -0.473 ± 0.14
49 | S59M | -0.068 ± 0.2
50 | S59N | -0.569 ± 0.26
51 | S59P | -0.064 ± 0.11
52 | S59Q | -0.293 ± 0.4
53 | S59R | -0.352 ± 0.11
54 | S59T | -0.085 ± 0.11
55 | S59V | -0.153 ± 0.12
56 | S59W | -0.074 ± 0.16
57 | S59Y | -0.109 ± 0.18

Variants of: B2
Assay: as above
Details: Homo sapiens

Row | Variant | abundance fitness
58 | G2R | -0.033 ± 0.045
59 | L6C | 0.069 ± 0.055
60 | D7F | -0.082 ± 0.27
61 | T4I | 0.032 ± 0.37
62 | C28R | -1.05 ± 0.081
63 | V18G | 0.011 ± 0.043
64 | A26D | 0.13 ± 0.082
65 | R1Y | -0.807 ± 0.38
66 | L23D | 0.064 ± 0.2
67 | I3R | -0.079 ± 0.046
68 | S19V | -0.032 ± 0.051
69 | D7Q | -0.147 ± 0.084
70 | D20E | -0.096 ± 0.063
71 | E11V | -0.519 ± 0.054
72 | N10Q | -0.313 ± 0.11
73 | A26V | -0.174 ± 0.076
74 | V31M | -0.104 ± 0.079
75 | T4Y | 0.133 ± 0.12
76 | L27P | -0.215 ± 0.084
77 | Q22M | 0.054 ± 0.068
78 | I3V | -0.188 ± 0.055
79 | R35L | -0.321 ± 0.068

Row | Variant | abundance fitness
80 | K12R | -0.042 ± 0.049
81 | M15R | -0.118 ± 0.06
82 | E11F | -0.248 ± 0.15
83 | L23H | -0.074 ± 0.16
84 | C25F | -0.468 ± 0.084
85 | R1Q | 0.069 ± 0.11
86 | I3T | 0.08 ± 0.06
87 | A40R | 0.014 ± 0.052
88 | D21V | -0.585 ± 0.061
89 | E9N | 0.056 ± 0.19
90 | I24R | -0.373 ± 0.12
91 | D21M | -0.316 ± 0.067
92 | V39G | -0.191 ± 0.054
93 | D36Q | -0.235 ± 0.088
94 | D20T | -0.706 ± 0.071
95 | D44Y | -0.285 ± 0.29
96 | N43T | 0.008 ± 0.087
97 | E9D | 0.017 ± 0.06
98 | L6K | 0.213 ± 0.072
99 | E9Q | 0.021 ± 0.063
100 | V13G | -0.143 ± 0.05
101 | S19L | -0.08 ± 0.053

Row | Variant | abundance fitness
102 | V39R | -0.319 ± 0.055
103 | A26I | -0.621 ± 0.26
104 | H34M | -0.677 ± 0.096
105 | H8R | -0.655 ± 0.053
106 | D20W | -0.809 ± 0.067
107 | Q38N | -0.104 ± 0.2
108 | N14P | -0.434 ± 0.23
109 | L23T | -0.046 ± 0.14
110 | Q22V | -0.012 ± 0.062
111 | V13A | -0.104 ± 0.057
112 | C25W | -1.92 ± 0.34
113 | L42F | -0.133 ± 0.16
114 | R33N | -0.127 ± 0.094
115 | L6P | 0.156 ± 0.058
116 | G32H | -0.185 ± 0.08
117 | S41T | -0.001 ± 0.062
118 | Y16D | -0.067 ± 0.12
119 | H34P | -0.66 ± 0.15
120 | D21T | -0.163 ± 0.057
121 | A40E | 0.072 ± 0.069
122 | Y16V | 0.023 ± 0.055
123 | N14M | -0.487 ± 0.19

Row | Variant | abundance fitness
124 | D20M | -1.19 ± 0.15
125 | L27V | 0.039 ± 0.057
126 | K12A | -0.095 ± 0.059
127 | D7R | -0.238 ± 0.044
128 | D44P | -0.061 ± 0.13
129 | H34Q | -0.319 ± 0.087
130 | N10H | -0.036 ± 0.12
131 | V31W | -0.428 ± 0.084
132 | E11M | -0.174 ± 0.098
133 | D21E | -0.056 ± 0.06
134 | L6F | -0.028 ± 0.07
135 | R1K | -0.211 ± 0.14
136 | C5L | -0.985 ± 0.097
137 | L6S | 0.118 ± 0.051
138 | V39W | -0.23 ± 0.076
139 | E9K | 0.073 ± 0.079
140 | K29Y | -0.079 ± 0.14
141 | M15L | 0.003 ± 0.063
142 | D20A | -0.77 ± 0.071
143 | G32V | -0.474 ± 0.067
144 | I3D | 0.123 ± 0.1
145 | S19N | -0.092 ± 0.12

Row | Variant | abundance fitness
146 | V18W | -0.19 ± 0.056
147 | L23P | 0.144 ± 0.076
148 | L6G | 0.039 ± 0.042
149 | L6E | 0.151 ± 0.049
150 | Y16S | -0.178 ± 0.073
151 | S41M | -0.222 ± 0.12
152 | N10P | -0.414 ± 0.11
153 | K12S | 0.095 ± 0.068
154 | L42D | -0.046 ± 0.1
155 | D7S | -0.173 ± 0.053
156 | A26P | -0.018 ± 0.066
157 | E11L | -0.524 ± 0.074
158 | H37K | 0.271 ± 0.068
159 | D44A | -0.152 ± 0.062
160 | E11Y | 0.129 ± 0.45
161 | V31D | -0.022 ± 0.098
162 | H34K | -0.402 ± 0.11
163 | N10D | -0.072 ± 0.073
164 | K12C | -0.389 ± 0.16
165 | L6I | 0.16 ± 0.13
166 | N43P | 0.062 ± 0.064
167 | Q38D | 0.117 ± 0.089
